Data taken from article PMC8708005, “Poly(C)-binding Protein 2 Regulates the p53 Expression via Interactions with the 5′-Terminal Region of p53 mRNA”.

Key:
[1] = target: T1, PCBP2 (poly(C)-binding protein 2, hnRNP E2) (UniProt Q15366 1-365); test: EMSA; 4 °C 25 min, 2.5 mM Mg2+; additional intermediate complexes; text also reports decreased binding ability at fixed protein (Fig 3c); EMSA: 25 mM NaH2PO4 pH 8.0, 50 mM NaCl, 25 mM KCl, 2.5 mM MgCl2, 10 mM imidazole, 0.5 mM DTT, 0.5 mM PMSF, 7% glycerol, 0.5 U/uL RNasin, 75 ng/uL BSA, 100 ng/uL yeast tRNA; 4 °C 25 min (also 25 °C 15 min, 37 °C 10 min); conditions: protein: recombinant; label: 5'-32P; shortened hairpin; C74-G144 pair replaces U57-G168
T1 sequence (Q15366 whole entry): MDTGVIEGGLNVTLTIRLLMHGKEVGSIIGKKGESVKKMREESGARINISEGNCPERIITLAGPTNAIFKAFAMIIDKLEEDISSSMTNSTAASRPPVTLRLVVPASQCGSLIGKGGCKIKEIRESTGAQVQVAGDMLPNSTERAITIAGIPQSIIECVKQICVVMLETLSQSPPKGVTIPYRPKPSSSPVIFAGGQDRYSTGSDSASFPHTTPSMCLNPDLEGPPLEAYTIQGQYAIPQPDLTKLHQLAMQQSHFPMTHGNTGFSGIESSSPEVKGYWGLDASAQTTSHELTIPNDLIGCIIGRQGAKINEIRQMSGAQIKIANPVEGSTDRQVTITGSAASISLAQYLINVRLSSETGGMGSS

[2] = target: T1, PCBP2 (poly(C)-binding protein 2, hnRNP …); test: EMSA; 4 °C 25 min, 2.5 mM Mg2+, yeast tRNA and BSA; EMSA: 25 mM NaH2PO4 pH 8.0, 50 mM NaCl, 25 mM KCl, 2.5 mM MgCl2, 10 mM imidazole, 0.5 mM DTT, 0.5 mM PMSF, 7% glycerol, 0.5 U/uL RNasin, 75 ng/uL BSA, 100 ng/uL yeast tRNA; 4 °C 25 min (also 25 °C 15 min, 37 °C 10 min); conditions: protein: recombinant; label: 5'-32P (EMSA); hairpins G56-C169 and U180-A218
[3] = target: T1, PCBP2 (poly(C)-binding protein 2, hnRNP …); test: EMSA; 1000 and 2500 nM PCBP2, 4 °C; no change vs P1-Δ40p53; EMSA: 25 mM NaH2PO4 pH 8.0, 50 mM NaCl, 25 mM KCl, 2.5 mM MgCl2, 10 mM imidazole, 0.5 mM DTT, 0.5 mM PMSF, 7% glycerol, 0.5 U/uL RNasin, 75 ng/uL BSA, 100 ng/uL yeast tRNA; 4 °C 25 min (also 25 °C 15 min, 37 °C 10 min); conditions: protein: recombinant, label: 5'-32P
[4] = target: T1, PCBP2 (poly(C)-binding protein 2, hnRNP …); test: EMSA; no complex at 4-4000 nM; smeared shift at 5 and 10 uM; EMSA: 25 mM NaH2PO4 pH 8.0, 50 mM NaCl, 25 mM KCl, 2.5 mM MgCl2, 10 mM imidazole, 0.5 mM DTT, 0.5 mM PMSF, 7% glycerol, 0.5 U/uL RNasin, 75 ng/uL BSA, 100 ng/uL yeast tRNA; 4 °C 25 min (also 25 °C 15 min, 37 °C 10 min); conditions: protein: recombinant; label: 5'-32P; hairpin

B1: P1-Δ40p53(Δ57) RNA (structured_RNA)
RNA: GGCUAGAGCCACCGUCCAGGGAGCAGGUAGCUGCUGGGCUCCGGGGACACUUUGCGCUUUCCACGACGGUGACACGCUUCCCGGUCACUGCCAUGGAGGAGCCCCCUCUGAGUCAGGAAACAUUUUCAGACCUAUGGAAACUACUUCCUGAAAACAACGUUCUGUCCCCCUUGCCGUCCCAAGCAAUG
In the case of B1, the Kd [1] is reported as 53 ± 6 nM.

B2: P1-Δ40p53 RNA (structured_RNA)
RNA: GGCUAGAGCCACCGUCCAGGGAGCAGGUAGCUGCUGGGCUCCGGGGACACUUUGCGUUCGGGCUGGGAGCGUGCUUUCCACGACGGUGACACGCUUCCCUGGAUUGGCAGCCAGACUGCCUUCCGGGUCACUGCCAUGGAGGAGCCGCAGUCAGAUCCUAGCGUCGAGCCCCCUCUGAGUCAGGAAACAUUUUCAGACCUAUGGAAACUACUUCCUGAAAACAACGUUCUGUCCCCCUUGCCGUCCCAAGCAAUG
B2 showed a Kd [2] of 95 ± 6 nM.

B3: P1-Δ40p53(S) RNA (structured_RNA)
RNA: GGCUAGAGCCACCGUCCAGGGAGCAGGUAGCUGCUGGGCUCCGGGGACACUUUGCGUUCGGGCUGGGAGCGUGCUUUCCAUGGCGGUGACACGCUUCCCUGGAUUGGCAGCCAGACUGCCUUCCGGGUCACUGCCAUGGAGGAGCCGCAGUCAGAUCCUAGCGUCGAGCCCCCUCUGAGUCAGGAAACAUUUUCAGACCUAUGGAAACUACUUCCUGAAAACAACGUUCUGUCCCCCUUGCCGUCCCAAGCAAUG
B3: binds ([3]; AUG1 in double-stranded region).

B4: P1-Δ40p53(L) RNA (structured_RNA)
RNA: GGCUAGAGCCACCGUCCAGGGAGCAGGUAGCUGCUGGGCUCCGGGGACACUUUGCGUUCGGGCUGGGAGCGUGCUUAAGCCGACGGUGACACGCUUCCCUGGAUUGGCAGCCAGACUGCCUUCCGGGUCACUGCCAUGGAGGAGCCGCAGUCAGAUCCUAGCGUCGAGCCCCCUCUGAGUCAGGAAACAUUUUCAGACCUAUGGAAACUACUUCCUGAAAACAACGUUCUGUCCCCCUUGCCGUCCCAAGCAAUG
B4: binds ([3]; AUG1 in internal loop).

B5: isolated hairpin G56-C169 RNA (structured_RNA)
RNA: GUUCGGGCUGGGAGCGUGCUUUCCACGACGGUGACACGCUUCCCUGGAUUGGCAGCCAGACUGCCUUCCGGGUCACUGCCAUGGAGGAGCCGCAGUCAGAUCCUAGCGUCGAGC
In the case of B5, the Kd [4] is reported as greater than 4000 nM.
